{
  "source": "patent US20240279288A1",
  "about": "“APPLICATION OF PLANT JAZ PROTEINS AND DERIVED POLYPEPTIDES IN PREVENTION AND TREATMENT OF HUMAN AND ANIMAL TUMORS” (ANYANG INSTITUTE OF SINO-COTTON INDUSTRY INNOVATION, priority 2021, published 2024)",
  "molecules": {"B1": {"name": "GhJAZ1: cotton JAZ1 protein, gene number Gh_A05G0260, sequence SEQ ID No. 4; prokaryotically expressed with His tag, about 30 KD (protein)", "chain": "MSSCSESTAMKPARSPEKPSFAQTCNLLSQYLKEKGSFGDLSLGMTCNVEANGTPVVPPPTMNLFPLNDKSDDVCGRNGGNPKNLTSMDLFPQQAGLASKDDSPNKLEPQTAPMTIFYGGQVIVFNDFPANKAKEIMLLASNSSSQSNNSFNPIPFTSSIARSPIESSIGVPPTSKPVHPAQRAVPGDLPIARRASLHRFLEKRKDRITAKAPYQINNSAAAPSLSGDNKSWLGLAAQSP", "modifications": "His tag", "notes": "prokaryotically expressed with His tag, about 30 KD"}},
  "key": {"[1]": {"molecular_target": "T1, D3 domain deficient uPAR (Homo sapiens, UniProt Q03405, DEL192-274)", "T1 construct": "expressed in transfected cells; host or cells: yeast Y2HGold", "T1 sequence (Q03405 with tags, fused parts or gaps DEL192-274)": "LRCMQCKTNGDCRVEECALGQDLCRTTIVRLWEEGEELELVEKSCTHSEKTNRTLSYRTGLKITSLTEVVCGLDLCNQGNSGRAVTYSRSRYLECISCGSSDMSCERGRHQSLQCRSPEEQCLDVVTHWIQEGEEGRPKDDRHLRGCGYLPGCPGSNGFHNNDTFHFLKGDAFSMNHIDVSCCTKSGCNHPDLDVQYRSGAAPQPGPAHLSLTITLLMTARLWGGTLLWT", "test": "Yeast two hybrid with D3 domain deficient uPAR", "assay_type": "binding", "from_the_text": "[…]"}, "[2]": {"tested_on": "MCF7 breast cancer cells", "test": "Cell cycle detection (PI DNA content), MCF7", "assay_type": "cell-based, human", "conditions": "0.691 μM, 24 h, vs PBS", "method": "Cell cycle detection: cells were moderately digested by trypsin, and collected by centrifugation with supernatant removed, and then cells were washed with PBS, and collected by centrifugation at 1,500 rpm for 5 minutes to prepare a single-cell suspension (at a concentration of 1×10^6/ml). 1 ml of single-cell suspension was then taken and centrifuged with the supernatant discarded, and then 500 μl of 70% pre-cooled ethanol were added to fix the cells overnight at 4° C. The next day, cells were collected by centrifugation, resuspended with 1 ml of PBS and centrifuged, and then 100 μl of RNase A solution were added to the cell pellet, followed by placement in water bath at 37° C. for 30 min, and then 400 μl of PI staining solution was added and mixed well, followed by incubation at 4° C. in dark for 30 min and detection on the instrument to record under red fluorescence at the excitation wavelength of 488 nm. Specifically, a DNA content detection kit (cell cycle) (Solarbio, Cat. No.: CA1510) was used."}, "[3]": {"tested_on": "breast cancer cells (MCF7)", "test": "CCK8 cell viability detection, MCF7", "assay_type": "cell-based, human", "method": "CCK8 cell viability detection: cell suspension was seeded in 96-well plates at a concentration of 5×10^4 cells/ml (100 μL/well). The plates were placed in the incubator for pre-culture (at 37° C., 5% CO2), and control and protein agents were added to each well 24 h after seeding. The plates were then placed in the incubator for 24 h, followed by addition of 10 μL CCK8 solution into each well and incubation of the plates in the incubator for 0.5-2 h before the absorbance measurement at 450 nm using a microplate reader.\nWe constructed GhJAZ1 prokaryotic expression plasmid with His-tag to express proteins (see step 2 in Example 4), and then a GhJAZ1 protein, along with 6 His tags, which was approximately 30 KD in size was found by WB detection (A in FIG. 7). The purified GhJAZ1 protein was used to treat breast cancer cells (MCF7) and breast epithelial cells (MCF10A), and the cell viability was measured with CCK8."}},
  "data": [
    {"molecule": "B1", "values": [
      {"measurement": "interaction with D3 domain deficient uPAR", "setting": "[1]", "value": "significantly weakened to none"},
      {"measurement": "proportion of G2-M phase cells (MCF7)", "setting": "[2]", "value": "increase"},
      {"measurement": "proportion of S-phase cells (MCF7)", "setting": "[2]", "value": "decrease"},
      {"measurement": "IC50", "setting": "[3]; CCK8, 24 h treatment, read-out: IC50, inhibition of MCF7 cells", "value": 691, "unit": "nM"},
      {"measurement": "viability of MCF7 cells", "setting": "[3]; with the increase of GhJAZ1 protein concentration", "value": "decreased significantly"}
    ]}
  ]
}
